Values of other authors in paper PMC9618554.

Molecular target: insulin receptor site-2' (Homo sapiens) (UniProt P06213)

Chain of insulin (P01308 90-110): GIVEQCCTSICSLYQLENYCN

insulin (from UniProt P01308)
Kd: 400 nM
